For one assay, the target named is nrgECD (UniProt Q02297). In words: Biacore SPR, immobilised nrgECD.
The next assay has as its target nrgEGF (UniProt Q02297). In words: Biacore SPR. For orientation: In SPR one partner is held on a chip, and binding of the other changes the refractive index at the surface.
The target in another assay is nrgbx (UniProt Q02297). In words: cell-based or functional assay.
Sequence of nrgbx (Q02297 other isoform, or with tags, fused parts or gaps limits assumed): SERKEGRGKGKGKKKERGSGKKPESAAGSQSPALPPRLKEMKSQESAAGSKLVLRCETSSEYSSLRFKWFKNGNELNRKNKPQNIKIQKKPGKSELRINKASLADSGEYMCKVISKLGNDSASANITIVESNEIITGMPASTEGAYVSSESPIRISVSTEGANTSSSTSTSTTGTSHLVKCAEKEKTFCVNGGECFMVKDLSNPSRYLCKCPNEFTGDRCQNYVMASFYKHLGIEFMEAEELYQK

Sequence of IGFBP3-Fc-ErbB4 (Fc fusion) (chain): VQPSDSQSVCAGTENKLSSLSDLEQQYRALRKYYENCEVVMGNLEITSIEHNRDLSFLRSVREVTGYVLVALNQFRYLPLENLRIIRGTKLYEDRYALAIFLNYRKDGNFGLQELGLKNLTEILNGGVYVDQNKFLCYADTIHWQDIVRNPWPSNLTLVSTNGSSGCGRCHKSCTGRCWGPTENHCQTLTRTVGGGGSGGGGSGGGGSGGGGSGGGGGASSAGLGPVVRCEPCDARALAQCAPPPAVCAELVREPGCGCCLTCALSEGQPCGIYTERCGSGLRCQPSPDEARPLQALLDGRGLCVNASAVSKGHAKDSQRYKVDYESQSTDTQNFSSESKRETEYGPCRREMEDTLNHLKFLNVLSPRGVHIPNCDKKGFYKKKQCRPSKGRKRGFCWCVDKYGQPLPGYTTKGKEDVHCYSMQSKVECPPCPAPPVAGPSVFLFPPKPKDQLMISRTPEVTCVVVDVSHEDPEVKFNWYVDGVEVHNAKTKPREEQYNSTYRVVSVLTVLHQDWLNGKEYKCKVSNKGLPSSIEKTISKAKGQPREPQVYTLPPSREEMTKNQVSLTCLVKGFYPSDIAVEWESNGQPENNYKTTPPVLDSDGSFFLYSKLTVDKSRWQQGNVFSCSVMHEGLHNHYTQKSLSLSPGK
Sequence of IGFBP3-Fc-VEGF-ErbB4 (Fc fusion) (chain): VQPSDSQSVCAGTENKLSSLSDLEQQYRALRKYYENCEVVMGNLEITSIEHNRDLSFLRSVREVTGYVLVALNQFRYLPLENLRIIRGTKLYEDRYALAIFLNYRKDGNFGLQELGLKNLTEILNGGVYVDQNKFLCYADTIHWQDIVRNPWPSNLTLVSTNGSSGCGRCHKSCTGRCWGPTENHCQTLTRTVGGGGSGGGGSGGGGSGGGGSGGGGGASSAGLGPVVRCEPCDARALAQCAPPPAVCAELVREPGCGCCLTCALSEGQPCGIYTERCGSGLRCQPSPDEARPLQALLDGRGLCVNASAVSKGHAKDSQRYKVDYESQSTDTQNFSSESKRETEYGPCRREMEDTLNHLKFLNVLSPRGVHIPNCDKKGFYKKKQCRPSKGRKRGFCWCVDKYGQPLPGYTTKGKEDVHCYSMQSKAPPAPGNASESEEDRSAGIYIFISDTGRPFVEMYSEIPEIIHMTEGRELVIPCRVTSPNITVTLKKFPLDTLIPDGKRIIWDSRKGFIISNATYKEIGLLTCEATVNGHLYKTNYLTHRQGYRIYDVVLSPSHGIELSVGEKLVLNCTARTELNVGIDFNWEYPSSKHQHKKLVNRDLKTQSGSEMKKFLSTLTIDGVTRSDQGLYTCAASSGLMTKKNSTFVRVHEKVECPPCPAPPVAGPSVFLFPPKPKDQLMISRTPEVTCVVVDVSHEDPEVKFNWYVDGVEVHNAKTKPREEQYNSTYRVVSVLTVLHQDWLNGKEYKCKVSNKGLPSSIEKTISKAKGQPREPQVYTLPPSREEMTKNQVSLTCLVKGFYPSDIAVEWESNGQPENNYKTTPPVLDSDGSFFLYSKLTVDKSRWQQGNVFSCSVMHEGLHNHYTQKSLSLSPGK
Sequence of IGFBP3-Fc-VEGF (Fc fusion) (chain): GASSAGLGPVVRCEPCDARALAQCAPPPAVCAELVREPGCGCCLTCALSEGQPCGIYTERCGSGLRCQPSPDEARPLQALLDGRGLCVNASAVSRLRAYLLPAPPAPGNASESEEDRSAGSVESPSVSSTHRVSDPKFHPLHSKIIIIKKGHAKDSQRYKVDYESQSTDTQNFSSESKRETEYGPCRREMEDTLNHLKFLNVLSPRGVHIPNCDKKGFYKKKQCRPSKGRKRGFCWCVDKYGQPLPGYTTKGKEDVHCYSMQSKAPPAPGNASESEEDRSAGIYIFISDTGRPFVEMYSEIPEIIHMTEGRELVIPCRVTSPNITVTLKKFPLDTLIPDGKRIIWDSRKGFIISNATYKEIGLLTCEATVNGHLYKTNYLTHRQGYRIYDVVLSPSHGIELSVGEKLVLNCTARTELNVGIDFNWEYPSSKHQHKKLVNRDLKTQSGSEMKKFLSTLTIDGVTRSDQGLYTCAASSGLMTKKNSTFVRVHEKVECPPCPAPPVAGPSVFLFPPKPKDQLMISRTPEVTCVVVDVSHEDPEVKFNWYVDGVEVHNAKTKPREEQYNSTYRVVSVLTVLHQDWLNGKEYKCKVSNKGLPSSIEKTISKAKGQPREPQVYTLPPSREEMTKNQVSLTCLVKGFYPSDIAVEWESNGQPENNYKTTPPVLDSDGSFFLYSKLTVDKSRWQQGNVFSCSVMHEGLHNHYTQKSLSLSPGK
Sequence of IGFBP3-Fc (Fc fusion) (chain): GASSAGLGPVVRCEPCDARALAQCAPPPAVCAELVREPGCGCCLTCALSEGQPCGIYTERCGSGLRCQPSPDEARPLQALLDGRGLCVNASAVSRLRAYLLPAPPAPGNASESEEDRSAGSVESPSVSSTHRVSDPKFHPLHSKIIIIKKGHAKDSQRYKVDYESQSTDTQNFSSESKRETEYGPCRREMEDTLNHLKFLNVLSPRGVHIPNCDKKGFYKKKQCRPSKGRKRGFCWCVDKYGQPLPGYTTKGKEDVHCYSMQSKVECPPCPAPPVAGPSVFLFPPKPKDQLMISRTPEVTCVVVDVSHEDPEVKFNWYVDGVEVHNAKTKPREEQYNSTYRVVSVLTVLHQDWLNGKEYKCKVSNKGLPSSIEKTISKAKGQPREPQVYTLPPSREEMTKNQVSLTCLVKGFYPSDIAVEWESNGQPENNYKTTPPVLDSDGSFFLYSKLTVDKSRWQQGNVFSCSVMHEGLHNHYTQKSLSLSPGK

Broadly, the Kd is a measure of binding affinity in units of concentration. A low value points to tighter binding. On to IGFBP3-Fc (Fc fusion), for which the dissociation constant (Kd) in the assay with nrgECD was determined as 5.3 nM.
Take IGFBP3-Fc-ErbB4 (Fc fusion): the dissociation constant (Kd) with nrgEGF worked out at 6 nM; in the assay with nrgECD it was 0.004 nM.
Turning to IGFBP3-Fc-VEGF (Fc fusion), the Kd in the assay with nrgECD worked out at 0.18 nM.
In the case of IGFBP3-Fc-VEGF-ErbB4 (Fc fusion), the Kd with nrgEGF stood at 11 nM; with nrgECD, 0.00011 nM.
As to chimera erbB4-A (Fc fusion), the IC50 in inhibiting neuregulin-induced proliferation with nrgbx worked out at 14 nM.

For the origin of these results see US20190359666A1.
